Several values for one entry are separate records, joined by “and”; a condition that tells them apart may be missing. Identical values can stand only once.
Details: Bos taurus, pH 7, 25 °C, CD, MOPS 30 mM, reversible: yes (partial), whole UniProt chain shown

B1: Cytochrome b5 wild type, P00171 (protein)
chain: MAEESSKAVKYYTLEEIQKHNNSKSTWLILHYKVYDLTKFLEEHPGGEEVLREQAGGDATENFEDVGHSTDARELSKTFIIGELHPDDRSKITKPSESIITTIDSNPSWWTNWLIPAISALFVALIYHLYTSEN
denaturant midpoint (higher = more stable) (GdnHCl): 1.27 M | unfolding free energy (GdnHCl): 3.2 kcal/mol | denaturant midpoint (higher = more stable) (GdnSCN): 1.52 M and 2.04 M

— FireProtDB (doi:10.1093/protein/gzi067)
